This assay deals with PRELP expressed on the cell surface of human cancer cells (human), P51888. Briefly: cell-based or functional assay.
PRELP expressed on the cell surface of human cancer cells (human), P51888, sequence (P51888 21-382): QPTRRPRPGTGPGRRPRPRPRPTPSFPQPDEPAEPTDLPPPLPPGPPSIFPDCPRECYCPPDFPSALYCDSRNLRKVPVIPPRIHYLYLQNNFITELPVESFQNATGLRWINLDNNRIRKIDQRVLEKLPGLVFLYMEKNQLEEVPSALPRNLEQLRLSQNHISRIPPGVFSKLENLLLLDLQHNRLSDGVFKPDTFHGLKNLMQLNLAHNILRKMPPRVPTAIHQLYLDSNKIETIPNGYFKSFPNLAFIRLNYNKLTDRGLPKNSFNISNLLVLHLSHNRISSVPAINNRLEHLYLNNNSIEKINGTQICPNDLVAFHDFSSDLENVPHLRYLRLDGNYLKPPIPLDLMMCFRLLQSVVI

B1: anti-PRELP-SS clone 6G1-G11 (antibody, mouse IgM, V domains shown)
VH: EVKLQQSGAELVKPGASVKLSCTASGFNIKDTYMHWVKQRPEQGLEWIGRIDPANGNTKYDPKFQGKATITADTSSNTAYLQLSSLTSEDTAVYYCARSTTVVVDYWGQGTTLTVSS
VL: DILLTQTPAIKSASPGEKVTMTCSASSSISYMHWYQQKPGTSPKRWIYDTSKLASGVPARFSGSGSGTSYSLTISSMEAEDAATYYCHQRSSYPTFGAGTKLELK
In the case of B1, the apoptosis (Annexin V-FITC and propidium iodide staining) of CLL cells, 18 hrs, 2.5 ug antibody was 16.9%; the apoptosis (Annexin V-FITC and propidium iodide staining) of CLL cells, 18 hrs, 5 ug antibody turned out to be 32.2%; the apoptosis (Annexin V-FITC and propidium iodide staining) of CLL cells, 18 hrs, 7.5 ug antibody amounted to 39.2%.

Values taken from patent US20130039917A1.
